Laboratory results reported in patent US20250152717A1 (AFFINI T THERAPEUTICS, published 2025).

Biological target: RAB7B-derived peptide presented by HLA-A11 (human)
Test: cell-based or functional assay
Parameters: unit not given beside the values

B1: TCR 11N4A (TCR, V domains shown)
V domain 1: DQQVKQNSPSLSVQEGRISILNCDYTNSMFDYFLWYKKYPAEGPTFLISISSIKDKNEDGRFTVFLNKSAKHLSLHIVPSQPGDSAVYFCAASGVSGNTPLVFGKGTRLSVIA
V domain 2: GVTQTPRYLIKTRGQQVTLSCSPISGHRSVSWYQQTPGQGLQFLFEYFSETQRNKGNFPGRFSGRQFSNSRSEMNVSTLELGDSALYLCASSVGTVEQYFGPGTRLTVTE
EC50 of the peptide dose-response of CD137 expression, sort-purified TCR 11N4A-transduced T cells: ~35
